Experimental data from article PMC5615210, “Design and Characterization of a Human Monoclonal Antibody that Modulates Mutant Connexin 26 Hemichannels Implicated in Deafness and Skin Disorders” (Frontiers in Molecular Neuroscience, 2017).
Ends that are not written are not given here. * marks the point of attachment. Biotin = O=C1N[C@H]2[C@H](CS[C@H]2CCCCC(=O)*)N1

Legend:
[1] = target: endogenous Cx26 of mouse cochlear organotypic cultures (Mus musculus C57BL6/N, UniProt Q00977); experiment: immunostaining of cells or tissue; cochlear organotypic cultures of P5 mice fixed in 4% PFA, not permeabilised, abEC1.1 (2 ug/ml) overnight at 4 C, fluorescein anti-human IgG secondary antibody, confocal microscopy; control with abEC1.1 pre-incubated overnight with pepEC1.1 at 1:10 (w/w); conditions: one partner purified
[2] = target: T1, pepEC1.1, peptide corresponding to residues 41-56 of Cx26 (Homo sapiens); experiment: ELISA; avidin-coated wells (1 ug/well), biotinylated pepEC1.1 captured (0.05 ug/well), abEC1.1 (1 mg/ml, diluted 1:100 in M-PBST) 1 h at 37 C, goat anti-human HRP conjugate, ABTS, OD at 405 nm; conditions: both partners purified
T1 construct: connexin 26 (Cx26), residues 41-56 in the EC1 domain; also called bait peptide; cognate peptide; source: synthetic peptide (Chinese Peptide Company)
T1 chain: Biotin-KEVWGDEQADFVCNTL

binding result [1]: binds
binding result [2]: binds
B1: abEC1.1 antibody (scFv-Fc fusion protein) (scFv, V domains shown)
VH: QVQLQQSGGGVVQPGRSLRLSCAASGFTFSSYAMHWVRQAPGKGLEWVAVISHGGSNKYYADSVKGRFTISRDNSKNTLYLQMNSLRAEDTAVYYCARDFSWRGYYMDVWGKGTLVTVSS
VL: ETTLTQSPATLSLSPGERATLSCRASQSISSYLAWYQQKPGQAPRLLIYGASTRATGIPDRFSGSGSGTDFTLTISRLEPEDFAVYYCQQYGSSPRTFGGGTKVEIK
notes: scFv domain of abEC1.1 (VH and VL joined by a linker of seven amino acids); scFv-Fc format from a modified pFUSE vector (pfuse-hg1fc2); also called wild type abEC1.1; source: FreeStyle 293-F cells, transfected, purified (HiTrap Protein A HP); not shown: Fc (hinge and Fc of human IgG1), C-terminal, kept
